target: SARS-CoV-2 Spike (S) trimer (SARS-CoV-2), P0DTC2; assay: ELISA, S trimer coated, 1:50 dilution; conditions: remark: other sources report otherwise

Binder	Optical Density (OD; 450 nm)
AB-009174 (antibody, V domains shown) VH: QVQLQQWGAGLLKPSETLSLTCAVYGESFSGYYWNWIRQPPGKGLEWIGEIDQSGSTNYNPSLKSRVTISVDTSKNQFSLKLTSVTAADTAVYYCARVSGRMQLWLRAGYMDVWDKGTTVTVSS VL: QSALTQPASVSGSPGQSITISCTGTSSDVGRYNYVSWYQQHPGKAPKLMIYEVSNRPSGVSNRFSGSKSGNTASLTISGLQAEDEADYYCSSYTTSSTRVFGGGTKLTVL	0.154 OD450
AB-009627 (antibody, V domains shown) VH: QVQLQQWGAGLLKPSETLSLTCAVYGGSFSGYYWSWIRQPPGKGLEWIGEINHSGSTNYNPSLKSRVTISVDTSKNQFSLKLSSVTAADTAVFYCARGGYSSSWYGEKYWFDPWGQGTLVTVSS VL: QSALTQPRSVSGSPGQSVTISCTGTSSDVGGYNYVSWYQQHPGKAPKLMIYDVSKRPSGVPDRFSGSKSGNTASLTISGLQAEDEADYYCCSYAGSPYVFGTGTKVTVL	0.823 OD450
AB-009231 (antibody, V domains shown) VH: EVQLVESGGGLVQPGGSLRLSCAASGFTFSSYWMSWVRQAPGKGLEWVANIKQDGSEKYYVDSVKGRFTISRDNAKNSLYLQMNSLRAEDTAVYYCARVSMRFLEWSFYYYYYMDVWGKGTTVTVSS VL: SSELTQDPAVSVALGQTVRITCQGDSLRSYYASWYQQKPGQAPVLVIYGKNNRPSGIPDRFSGSSSGNTASLTITGAQAEDEADYYCNSRDSSGNHLGVVFGGGTKLTVL	0.46 OD450
AB-009202 (antibody, V domains shown) VH: QVQLVESGGGVVQPGRSLRLSCAASGFTFSSYGMHWVRQAPGKGLEWVAVIWYDGSNKYYADSVKGRFTISRDNSKNTLYLQMNSLRAEDTAVYYCARDGGPEYYFDYWGQGTLVTVSS VL: SYELTQPPSVSVSPGQTARITCSGDALPKQYAYWYQQKPGQAPVLVIYKDSERPSGIPERFSGSSSGTTVTLTISGVQAEDEADYYCQSADSSGTYNVVFGGGTKLTVL	1.99 OD450
AB-009108 (antibody, V domains shown) VH: QVQLQESGPGLVKPSETLALTCTVSGDSIINNNFYWGWLRQPPGQGLEWIGSLFHTGSAYYNSSLKSRVRSSVDTARNQISLRLSSVTAADTAVYYCARVNIVSVPAPPGAIEGWFDPWGQGTRVTVSP VL: SYELTQPPSVSVSLGQTARISCSGDALPTKYVHWYQQKAGQAPVVVIFRDTERPSEIPERFSGSSSGTTVTLTISGVQAEDEADYYCQSVDGSGFYVFGSGTKVTVL	0.28 OD450
AB-009237 (antibody, V domains shown) VH: QVQLLQSGAEVKKPGASVSVSCKASGFTFTSYYFHWVRQAPGQGLEWMGIVSPAGGSTNYAQKFQGRVTMTRDTSTSTVHMELRNVRYDDTAVFYCARSVYCSSPSCPHGMDVWGPGTMVTVSS VL: DIQVTQSPSTLSASVGDRVTITCRASQSILTYLAWYQQKPGKAPNLLIYKASNLQSGVPSRFSGSGSGTEFTLTISSLQPDDFATYHCQQYKSYPFSFGQGTKLAIK	0.228 OD450
AB-009244 (antibody, V domains shown) VH: EVQLVESGGGLVQPGGSLRLSCAASGFAFNTYGINWVRQAPGKGLEWVSFISSRSTTIHYADSVRGRFTISRDNAKNSLYLQMNNLRDEDTAVYYCARDLLIWFGETGAFDIWGQGTMVTVSS VL: EVVMTQSPATLSVSSGERVTLSCRASQSVSNNLAWYQQKPGQAPRLLIYGASTRATGFPARFSGSGSGTEFTLTISSLQSEDFAVYYCQQYNIWPPGTFGQGTKLEIK	0.239 OD450

Reference: patent US20240025971A1
